For 1 substance, mean fluorescence intensity of CaR expression on monocytes results are on record in US20060292689A1.

The experiment addresses CCR-2 (human) (UniProt P41597). In words: cell-based or functional assay.

CCR-2 (human), sequence (P41597 whole entry): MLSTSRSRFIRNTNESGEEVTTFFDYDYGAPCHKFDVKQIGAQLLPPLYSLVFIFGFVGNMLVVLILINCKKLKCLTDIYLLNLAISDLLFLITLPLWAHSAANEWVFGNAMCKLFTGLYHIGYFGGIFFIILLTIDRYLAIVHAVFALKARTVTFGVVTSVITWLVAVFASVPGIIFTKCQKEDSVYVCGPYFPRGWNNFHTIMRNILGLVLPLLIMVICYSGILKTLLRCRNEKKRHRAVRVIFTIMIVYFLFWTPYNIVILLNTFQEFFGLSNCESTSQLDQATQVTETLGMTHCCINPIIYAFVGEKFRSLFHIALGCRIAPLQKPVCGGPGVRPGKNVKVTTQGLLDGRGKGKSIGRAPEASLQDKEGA

With “MCP-1 (from UniProt P13500 24-99) (ligand)”, the mean fluorescence intensity of CaR expression on monocytes worked out at 673 units.
